Experimental data reported in a protein production outcome set (Wang et al. 2014).

Experiment: label from the status in PepcDB records

Row | Sequence | protein production
1 | MIIRIKHYGEVKIEDSKNLLLNLIENRIGIDNICNGKGTCGKCKVRFRQGVPEATSADLRYLSVEELEEGVRLACQVKPQKGMEIDVTLSNSFDRKNTVLRRDDQVALDSGLSGISLTIPQPSLEDERGDWDRIIDEYRKVMPEQGLALPSLGVLERLPGTLRKLDYRITAVTWQNRVIDVQPGHDTALHGLAVDIGTTSVAVALIDLKTGEVLGSVSAENGQTAFGGDVISRIAYAGEGLKNRLQLTAAVRSTINTLIDELVLQHEIVRNSIYKMTIVANTTMSHLFLGLDVSNLAVSPYVSVYNQALEFSAKELGLGSNPEAVVQILPNIGSFVGGDTVGALLGAPEVLTQGNHLLLDLGTNCELVLKTEKMMLACSTAAGPAFEGAGIFHGMRAKPGAIEGIRIHEEGVELRVIGDEEALGICGSGLIDGIAQMRQAGIINRKGAFVDPDHKDCSLSDELKSRIRKKEDYWEFVFAFGRQHKKDISLGQRDIEALQLAKGAVCAGIKTLVSLAGISLRDLDSIVMAGTFATYLKKESILSIGLTPHTDPEKIKMAGNAAHLGAIRTLLNQGTFAEGAELARRIQHIELGGDKTFTNFFMRSMYLEPTD | failed
2 | MNISKEKVVDAISMVGYFVFAYVVMELLSINKYDWMMESGDSICSIPHQPLSNRILQAGVAALLLITPLFIALARNIFIKNRYKIAYYIVGILCIALYGGWLFLGRFALC | failed
3 | FTCPITKEEMKKPVKNKVCGHTYEEDAIVRMIESRQKRKKKAYCPQIGCSHTDIRKSDLIQDEALRRAIENHNKKRHRHSE | not failed
4 | MANTATDQRADTLMLVHVPADRKKTYAISLMRDLWIDIPGVGESKINAALAYGGVPLMVQTVESLLQQRIDHVAMIDFQGFKGLTDALGGVEVDVRIPFAPSSGPKAGQVYDAGKQTLNGDEALAFVRERKAFSDGDYQRVRNQQAYLKAIIGKVIARETLTNPVTISNMVSAVSPFVSVDKDFDAAAIGSLALSMKDVRAQDTVMFTLPTLGTGTSPDGQSIVLADTTAIADVTAALAKDQVDAYITAHALDKGFLEHHHHHH | not failed
5 | MFLDMLSLIRGQKIKLNDALQGQSSFYIQIHYQAAFDLDIASFGLDSQYRLSDERYMTFYNQPETPCQAVRLIENQNKCSRFLVDLAKLPATIQHLVLTAAIDGQNIMSQLQQVTVQILNLQLQPIAELKLDASIFDQERATMLIEIYRKEGIWRLAAIGQGFNAGLAALIQHFGGEVAEEPTAQQTTPVAPQSNIDLKKKLSLQKAEKTGNASIIDLTKKSLVQLEKKKLLGVTARVALVLDASGSMDGQYRRGDVQKVVNRLMPLAIHFDDDGSFECWAFAAETTQLDDVTLSNVNDFINSTQRGWKNWQVGARYNEEIPAIEAVINYFQKFQDQIPTYVLFISDGGVGSRRQMQKILSQAAKLPIFWQFVGIGGRNYGALEKLDEMSGRIVDNCNFFSLDRIDGVSDERLYELLLQEFPDWLIAARQHQIVRN | failed
6 | MNSPSHLEVREGADINLYNQILIPLYGADIRDSVVQYGLSLAETYDAALHVLYIQDEERTEVESDQVTKQEEWDAAAVIEPVVDQAHSLGLNVIPAVDSGHSPGVIREYAEENDIDLLVHQKPTQTRLARILRRDVSSHIIQNISLPVLTIPDMDPSDPVGELSTSQFTDILVPTDGYDEASVAFKHGLQIAKRYDATLHGLFIISEQSYSSRPGFTWEEVTDSWEQRGTRLLEDITEKAATLDVPVRTTLRFGQPQQEILKYTEVTDIDLVTMGTRGLTGIRRLLQGSVAAQVIEEADYPVLTINRRTAELKKHPYTFLRKTNQNRKSRLY | failed
7 | ERYMQDFDLIFKELERWGPGSESDTLKALQKVPNKSMTLLEIGCGQGIATELFARHTDAMITAVDNEEFALKHLMEKMQQNGLEDKITTVCADMAKMPFETKSFDLIWSEGSAYIMGVQNALKAWKPLLSEDGVLVVSDLVWSTDKPSEGALSFWKKEYPDMVSVSERIKHAQQAGYEVIEHFSLSDAAWEAYYHPLIERLDTLKDKLIDSPVLIDFENEITAFKQRANEFDYEIFILRSR | failed
8 | MLDFYALEDLLTPEEKEVQKAARRFLEKEALPHIRDWWEEGVFPTHLIPRFAELGFLGPTLPPEYGGAGVSSAAYGLICYELERVDSGLRSFVSVQSSLVMYPIYAYGSEEQKREFLPKLARGEMVGCFGLTEPDGGSDPYGNMKTRARREGDTWVLNGTKMWITNGNLAHLAVIWAKDEGGEVLGFLVPTDTPGFQAREVKRKMSLRASVTSELVLEEVRVPESLRLPKALGLKAPLSCLTQARFGIAWGAMGALEAVYEEAVAFAKSRSTFGEPLAKKQLVQAKLAEMLAWHTEGLLLAWRLARLKDEGKLTPAQVSLAKRQNVWKALQAARMARDILGGSGITLEYHAIRHMLNLETVYTYEGTHDVHTLVLGREITGLNAF | not failed
9 | MKLPRFGVEEWLNVHENSAIYDIAGVSISSLTLEELFALSGTNPEDFYKKLQGTKLNYGWIEGSPAFKKSVSQLYTGVKPEQILQTNGATGANLLVLYSLIEPGDHVISLYPTYQQLYDIPKSLGAEVDLWQIEEENGWLPDLEKLRQLIRPTTKMICINNANNPTGAVMDRTYLEELVEIASEVGAYILSDEVYRSFSELDVPSIIEVYDKGIAVNSLSKTYSLPGIRIGWVAANHQVTDILRDYRDYTMICAGVFDDLVAQLALAHYQEILERNRHILEENLAILDQWIEEEPLVSYIRPAVVSTSFVKIAVDMPMEDFCLQLLQEHGVLLVPGNRFERDGYVRLGFACEQETLIKGLEKLSQFLRRFDKEN | not failed
10 | MELLSIVIFGLLIVVSPSADFVLVFKNSAMHSRKAGMLTAIGIGAGVCVHISYSIIGISQLIANNAGLFSLVKYVGAAYLIYIGIAGLLSAKLTLDYGTQLIKPVENRKYIMQGFLCNVLNPKTMIFFLSVFSQLISSHSDSLAFVISYGVYIAVLHGIWFCIVAYLVTSAKATRVLKRFGHRINQACGVGLITFGVILSTND | failed
11 | MRRSAYMTDTKICKKGCDHDTSHRENEQRCGRGSFWMHDPDLIFSELKLKAGEFFLDMGCGPGDYSIWASKIVGNSGMVYALDKWQELIDNLTEKADLEGIKNIKGMVSDIARPLPIEESCIDVYFISTVLHSLDLAKDSDVIFSEIHRVLKPDGRLAIVECKKEEMSFGPPLHMRLSPEELENLIAKYGFEKINLVDLGYNYMIQFRKSYQK | failed
12 | MQHPRQGPPSRHTRRSLGRSLALTMTAVLGAAGLALSPAASADSGPTTADPTEAHGLKGEYYTQSAPGAFDFAELKATGFDPGLDFDSLESRLSAATGRADDVSVRWTGEVVPEKSGPTTFSITGDNGFRLWVDGKLTIDHWVDDWDREQTSQPVDLTAGRAYDIKVEYFEHFGGSNLHLRWTPPGGSKSAVPQSAFRLPDGFDYNGALSATVLGDGRTVRLDFPQALASAPATVLDHLTVTSGGKWPLSSVKTDPSDARALLVGLGEPVVGNKAGTAKGGVNVTYDGKGALADTSGTPVKAFWSSGPNKSTYELRTKWADQVGPKNALPEYPRPQLTRKAWQNLNGTWQFAGAKAGEEPPTGRTLAERILVPYPVESQLSGIERHEDRMWYRRTFTVPADWKVGHGKRLRLNFGAVDWQSEVYVNGTKVAEHKGGYDKFSADVTDALKPGRTQELIVGVYDPTDAQGGENPPLGKQRLDPSGIWYTPSSGIWQTVWMEPVAADHVDTLKLTPDVETSTLTVEPKGVRDGLAVTATAYDGKKKVATVRGRTGTPLTLKLAEPRLWSPDDPFLYDLKVDVGADRVGSYFGMRSIAVEKVDGTPRTVLNGKPVFMMATLDQGFWPDGLHTAPTDDALAHDLKMHKQMGFNSVRKHIKVEPDRWFYWADRLGLLVWQDMPAMTAGVNPNAASRAEYEREMKQLIDEHISSPSVVMWVTFNEGWGQYDEARIADQAKAWDPTRLVNSMSGLNLGVDGGTGDVMDEHGYPSPALPPHPDGRRALVSGEYGGLGLGVPGHAWSVQMSYVDVDPAAYTDTYLARLDEVRRLACRGGNGAVYTQISDVEGELNGLMTYDRKIVKPDVQRLRTAHEALIEAVAQSTLPCATS | failed
13 | MTRTVTGDTVQTRWGPVQVRVTVRNGVITEVTAVACPQENPKDREINSYAIPQLRREALAAQSAQIDSVSGATYTSDGYRQSLQSALDSAGLLEHHHHHH | not failed
14 | MSKKVIADVFLEVANAIESGEFGKKVKIGVTTLGSEHGVENMVNGAQLAKSNLFDIVLIGPKVETDLEVVEVNDEKEMHAKMEELLDSGYIDACVTMHYNFPIGVSTVGRVITPAKGKEMILATTTGTSATNRIEAMVRNAIYGIATAKSMGNKCPKVGILNVDGARQVEKCLKELKDNGYDMEFADSIRADGGCVMRGNDLLVGAPDVMVTDTLSGNIFMKVFSSYTTGGDYEAQGFGYGPGVGEDYDRKVLIVSRASGSPVVANALKYAYDVVKGDISNVARNEFAKVKKAKFDDIISSLTKKEVKAEKVEVKMPDKEIVTRQIAGVDIMDLEDAVSELWKNGIYAESGMGCTGPIVLVNEAKGDLAVETLVKAGYTAK | failed
15 | QTVNHELQSKVSELSEANNDMKNLLNSTDIATLFLDDSLNIRRFTTRTASIIKLIASDIGRPITDIVTDLHYPALADDAQEVLRTLIFREKQVSANNDRWFSVKIMPYRTQENKIVGLVITFSDITTSKKLEA | failed
16 | RSKTVILAKNLPAGTLAAEIQETFSRFGSLGRVLLPEGGITAIVEFLEPLEARKAFRHLAYSKFHHVPLYLEWAPIGVFGAAPQKKDSQHEQPAEKAE | not failed
17 | MIKKFKNYDQIIKELFVIAIPTAFESLLFQMVTFFDNFMISYLGSFHVTGVSLANRVTFLFFIIVFGLGTALSAYVSQAIAKKKFLQVRQSFAYILLIGTTIGIIFFIFSFLFPRNIIKLFTANQDSLNFGSEYLKIISLSYVLMAYSFLSAMGFKSAKEVKIPLYVTSIVVLINIVFNYILIFGFSMGIKGAAYATVLARIVEFVFYFLYSLISSNSYYRIKFGDFFAPKVVTRANLKLIIPVLSHEIFWVLSITILHAFYARVGSIEYASFAVASNLFDICFVLLHGMGLATGVVIGHLMIYDKKHVRSVGFFLSFLGFLLGIFVVILLIGISSFAPYIFSKLDSPELVSVFIYVFASIVIFKAFTAQVLVGVFRASGIPNVCFFIESGVIVFYTLPVAYLLVFYTNLSLPIVVFIVNLEEIIKNIFIIIEFFHDDWIREIEYEELA | failed
18 | MQIKAGLIWMNGAFVPQEEAKTSVLSHALHYGTSVFEGIRAYETAKGPAIFRLKEHVKRFYNSAKVLRMEIPFAPEELEEAIKEVVRRNGYRSCYIRPLAWMGAKALGVNPLPNNPAEVMVAAWEWGAYLGEEAVRKGARLITSSWARFPANVMPGKAKVGGNYVNSALAKMEAVAAGADEALLLDEEGYVAEGSGENLFFVRDGVIYALEHSVNLEGITRDSVIRIAKDLGYEVQVVRATRDQLYMADEVFMTGTAAEVTPVSMIDWRPIGKGTAGPVALRLREVYLEAVTGRRPEYEGWLTYVNGQ | not failed
19 | MRDVIIALLPATIFGIINFEINAMILILTCVVSCVLFEWLYQKMMNRKVTIYDLSAVVTGLLLALNLSPDVPIWMAILGSAFAIIIVKQLFGGLGFNFMNPALGARCFLLISFAGRMTSFSYDGVTTATPLAVLKNTGDLANVNVLHMFLGNIPGTIGETSVVCILVGAAYLLIRRVIKPVIPLTYIGTFAVLIMIYALASGRGFDLTFLAAHLCGGGLMLGAFFMATDYVTSPITPAGKVVFGVILGILTFCFRIYGGSAEGVSYAIIFSNLLVPLIERWTQPKSFGEGAELAAQGDTSGTKSKMDTRSIIIATIAIMIITVIAGFALAYVYKVTKDPIAVTEQKAKEEAYKAVFGDADSFDSYSDFDADAAAKVLKDAGYNADIDEVVEAKNSDGSVLGYVVTVTSHEAYSGDLQLAMGVRTDGTTNGISFLSLSETAGLGMEADTDSFKSQFAGKKVDKFKYTKSGATVDEEIDALSGATITTNAVTNAVDAGLEYVKSINGGAADPSNALDETDASNGGDK | failed
20 | EQTTAADLPLTLAIAREVGNLLLTDSLLAETNRHLNQLNALLESMDDGVISWDEQGNLQFINAQAARVLRLDATASQGRAITELLTLPAVLQQAIKLAHPLKHVEATFESQHQFIDAVITLKPIIETQGTSFILLLHP | failed
